Laboratory results taken from patent US6368828 (US Dept. of Health and Human Services, dated 2002).

Target: the molecule itself
Assay: DSG crosslinking of whole cell lysates; immunoprecipitation and immunoblot with anti-Stat6 serum
Description: Effect of Stat6c on endogenous Stat6 dimerization. To elucidate the molecular mechanism of Stat6c's potent transcriptional […], several possibilities were considered. Because endogenous Stat6 tyrosine phosphorylation is only partly diminished by Stat6c, inhibition of IL-4-induced endogenous Stat6 association with IL-4Rα or JAK activation appeared unlikely. […] Therefore, crosslinking studies were performed to investigate whether Stat6c might effect endogenous Stat6 dimerization. Whole cell lysates from IL-4-treated FDC-P2 cells or Stat6 and Stat6c transfectants were incubated with disuccinimidyl glutarate (DSG).

B1: endogenous murine Stat6 (other, UniProt P52633 1-837, looked up)
chain: MSLWGLISKMSPEKLQRLYVDFPQRLRHLLADWLESQPWEFLVGSDAFCYNMASALLSATVQRLQATAGEQGKGNSILPHISTLESIYQRDPLKLVATIRQILQGEKKAVIEEFRHLPGPFHRKQEELKFTTALGRLQHRVRETRLLRESLQQGAKTGQVSLQNLIDPPVNGPGPSEDLATMLQGTVGDLEATQALVLKRIQIWKRQQQLAGNGTPFEESLAGLQERCESLVEIYSQLQQEIGAASGELEPKTRASLISRLDEVLRTLVTSSFLVEKQPPQVLKTQTKFQAGVRFLLGLQFLGTSAKPPMVRADMVTEKQARELSLAQGPGTGVESTGEIMNNTVPLENSIPSNCCSALFKNLLLKKIKRCERKGTESVTEEKCAVLFSTSFTLGPNKLLIQLQALSLPLVVIVHGNQDNNAKATILWDNAFSEMDRVPFVVAERVPWEKMCETLNLKFMAEVGTSRGLLPEHFLFLAQKIFNDNSLSVEAFQHRCVSWSQFNKEILLGRGFTFWQWFDGVLDLTKRCLRSYWSDRLIIGFISKQYVTSLLLNEPDGTFLLRFSDSEIGGITIAHVIRGQDGSSQIENIQPFSAKDLSIRSLGDRIRDLAQLKNLYPKKPKDEAFRSHYKPEQMGKDGRGYVSTTIKMTVERDQPLPTPEPQMPAMVPPYDLGMAPDASMQLSSDMGYPPQSIHSFQSLEESMSVLPSFQEPHLQMPPNMSQITMPFDQPHPQGLLQCQSQEHAVSSPEPMLCSDVTMVEDSCLTQPVGGFPQGTWVSEDMYPPLMPPTEQDLTKLLLENQGEAGGSLGSQPLLQPSPYGQSGISLSHLDLRTNPSW
notes: Endogenous protein in FDC-P2 whole cell lysates; also called endogenous Stat6
  binding result: binds
